Experimental data: US20240409647A1 (SINOMAB BIOSCIENCE, published 2024)

Assays:
[1] = target: T1, human IL-17RB protein (recombinant, R&D systems) (human); assay: ELISA, coated receptor; SM17 at 0.08 µg/mL; well 2
T1 construct: Bought protein; also called hIL17RB
T1 sequence (Q9NRM6 whole entry, looked up): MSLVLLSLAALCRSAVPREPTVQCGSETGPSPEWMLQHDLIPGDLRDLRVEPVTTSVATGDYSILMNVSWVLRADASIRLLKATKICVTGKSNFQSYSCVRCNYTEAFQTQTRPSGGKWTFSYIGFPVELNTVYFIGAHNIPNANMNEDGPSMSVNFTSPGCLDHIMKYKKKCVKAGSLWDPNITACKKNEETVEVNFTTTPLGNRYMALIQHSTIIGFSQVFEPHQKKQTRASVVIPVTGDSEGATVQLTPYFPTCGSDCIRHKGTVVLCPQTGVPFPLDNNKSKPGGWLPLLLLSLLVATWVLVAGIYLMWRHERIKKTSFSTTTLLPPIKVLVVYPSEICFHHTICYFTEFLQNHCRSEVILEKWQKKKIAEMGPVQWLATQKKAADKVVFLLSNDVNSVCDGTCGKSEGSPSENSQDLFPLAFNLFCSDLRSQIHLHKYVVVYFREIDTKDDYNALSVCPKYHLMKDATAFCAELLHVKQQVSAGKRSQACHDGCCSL

[2] = target: T2, human IL-17 receptor subunit A (human, UniProt Q96F46 33-320); assay: ELISA, coated receptor; SM17 at 0.08 µg/mL; well 2
T2 construct: also called IL17RA; hIL17RA

[3] = target: T3, human IL-17 receptor subunit C (human, UniProt Q8NAC3-2 21-467, limits assumed); assay: ELISA, coated receptor; SM17 at 0.08 µg/mL; well 2
T3 construct: also called IL17RC; hIL17RC
T3 sequence (looked up): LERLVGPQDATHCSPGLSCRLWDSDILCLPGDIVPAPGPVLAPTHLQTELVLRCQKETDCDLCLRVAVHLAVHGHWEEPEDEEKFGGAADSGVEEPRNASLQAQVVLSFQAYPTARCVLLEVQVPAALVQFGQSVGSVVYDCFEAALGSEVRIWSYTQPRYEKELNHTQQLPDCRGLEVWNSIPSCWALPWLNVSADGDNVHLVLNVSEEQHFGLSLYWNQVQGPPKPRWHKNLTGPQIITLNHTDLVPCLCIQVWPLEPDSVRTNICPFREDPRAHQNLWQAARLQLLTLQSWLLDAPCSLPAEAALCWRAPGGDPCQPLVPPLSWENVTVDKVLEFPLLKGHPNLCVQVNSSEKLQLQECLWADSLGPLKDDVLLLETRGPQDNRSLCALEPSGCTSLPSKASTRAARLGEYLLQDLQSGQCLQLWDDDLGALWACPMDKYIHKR

[4] = target: T4, human IL-17 receptor subunit D (human, UniProt Q8NFM7 28-299, limits assumed); assay: ELISA, coated receptor; SM17 at 0.08 µg/mL; well 2
T4 construct: also called IL17RD; hIL 17RD
T4 sequence (looked up): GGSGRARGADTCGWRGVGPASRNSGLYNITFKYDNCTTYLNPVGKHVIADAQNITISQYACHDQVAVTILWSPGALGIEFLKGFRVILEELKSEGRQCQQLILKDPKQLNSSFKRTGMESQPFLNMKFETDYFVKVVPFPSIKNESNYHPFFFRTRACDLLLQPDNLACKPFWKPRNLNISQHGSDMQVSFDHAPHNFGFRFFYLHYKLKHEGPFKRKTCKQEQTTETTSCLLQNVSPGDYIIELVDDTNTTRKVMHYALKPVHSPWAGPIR

[5] = target: T5, human IL-17 receptor subunit E (human, UniProt Q8NFR9 24-454, limits assumed); assay: ELISA, coated receptor; SM17 at 0.08 µg/mL; well 2
T5 construct: also called hIL17RE
T5 sequence (looked up): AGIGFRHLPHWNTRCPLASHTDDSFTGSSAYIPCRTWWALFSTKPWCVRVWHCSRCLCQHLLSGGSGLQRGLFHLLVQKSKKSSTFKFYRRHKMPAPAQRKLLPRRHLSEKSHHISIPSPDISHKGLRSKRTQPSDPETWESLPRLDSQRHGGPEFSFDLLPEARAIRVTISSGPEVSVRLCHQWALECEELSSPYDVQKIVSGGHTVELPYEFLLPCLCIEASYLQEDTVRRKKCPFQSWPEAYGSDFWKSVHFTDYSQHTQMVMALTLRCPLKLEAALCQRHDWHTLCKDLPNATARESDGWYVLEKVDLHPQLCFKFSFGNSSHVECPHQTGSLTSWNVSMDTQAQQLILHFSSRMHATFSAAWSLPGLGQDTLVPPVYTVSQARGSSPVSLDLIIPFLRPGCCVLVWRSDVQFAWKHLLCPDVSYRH

[6] = target: T1, human IL-17RB protein (recombinant, R&D …); assay: ELISA, coated receptor; SM17 at 0.016 µg/mL; well 1
[7] = target: T1, human IL-17RB protein (recombinant, R&D …); assay: ELISA, coated receptor; SM17 at 0.0032 µg/mL; well 1
[8] = target: T2, human IL-17 receptor subunit A; assay: as above
[9] = target: T3, human IL-17 receptor subunit C; assay: as above
[10] = target: T4, human IL-17 receptor subunit D; assay: as above
[11] = target: T5, human IL-17 receptor subunit E; assay: as above
human TSLP (R&D systems) = target: T6, human TSLP (R&D systems) (human, UniProt Q969D9 29-159); assay: BLI (Octet RED96), binder captured via anti-human Fab CH1, TSLP in solution
T6 construct: also called thymic stromal lymphopoietin
Method: Biosensors immobilized with irrelevant antibody (SM03, anti-human CD22 chimeric IgG1 antibody, SinoMab BioScience Limited, 20 μg/mL) were used as control reference.

B1: SM17 (antibody, human IgG4 S228P, kappa, V domains shown)
VH: QVQLVQSGAEVKKPGASVKVSCKASGYTFISYWMNWVRQAPGQGLEWMGRIDPYDSEIQYNQKFKDRVTMTRDTSISTAYMELSRLRSDDTAVYYCARSGGFDWFAYWGQGTLVTVSS
VL: DIQMTQSPSSLSASVGDRVTITCRASENINSNLAWYQQKPGKAPKLLLYDVTNLADGVPSRFSGSGSGTDYTLTISSLQPEDFATYYCQHFWGPPYTFGGGTKVEIKR
notes: other paragraphs and claim 15 call the same entries VH and VL; also called humanized anti-IL17RB monoclonal antibody
OD 450 nm Absorption [1]: 0.64 OD450
OD 450 nm Absorption [2]: 0.06 OD450
OD 450 nm Absorption [3]: -0.02 OD450
OD 450 nm Absorption [4]: 0.01 OD450
OD 450 nm Absorption [5]: 0 OD450
OD 450 nm Absorption [6]: 0.35 OD450
OD 450 nm Absorption [7]: 0.16 OD450
OD 450 nm Absorption [8]: 0.2 OD450
OD 450 nm Absorption [9]: 0.03 OD450
OD 450 nm Absorption [10]: 0.04 OD450
OD 450 nm Absorption [11]: -0.01 OD450
Kd (human TSLP (R&D systems)): 100 nM
koff (human TSLP (R&D systems)): 0.001 s⁻¹
